In paper PMC8251712:

What was measured:
[1] = target: T1, Myb10-D (Pcold-Myb10-D fusion) (Triticum aestivum, UniProt C0SPG5 1-265); test: EMSA
[2] = target: T1, Myb10-D (Pcold-Myb10-D fusion); test: competition
[3] = target: T1, Myb10-D (Pcold-Myb10-D fusion); test: competition; remark: listed apart in the source
[4] = target: T1, Myb10-D (Pcold-Myb10-D fusion); test: competition; remark: listed apart in the source
[5] = target: T1, Myb10-D (Pcold-Myb10-D fusion); test: EMSA; remark: listed apart in the source

B1: NCED probe2988 (SMRE) (dsDNA)
DNA 1: ACGTAATCTTTGAACTTTTCACCAAATAAACATTTCCACC
DNA 2: GGTGGAAATGTTTATTTGGTGAAAAGTTCAAAGATTACGT
- binding result [1]: binds

B2: NCED freeprobe2988 (WT competitor) (dsDNA)
DNA 1: ACGTAATCTTTGAACTTTTCACCAAATAAACATTTCCACC
DNA 2: GGTGGAAATGTTTATTTGGTGAAAAGTTCAAAGATTACGT
- binding result [2]: binds

B3: NCED freeprobe2988mu (mutant competitor) (dsDNA)
DNA 1: ACGTAATCTTTGAACTTTTCGGGGGGAAACATTTCCACC
DNA 2: GGTGGAAATGTTTCCCCCCGAAAAGTTCAAAGATTACGT
- binding result [3]: no binding

B4: ABA3 269200 WT (dsDNA)
DNA 1: ACATCGTCGTTCATCACCAGCTAGCGAAGCAAACAAGGAG
DNA 2: CTCCTTGTTTGCTTCGCTAGCTGGTGATGAACGACGATGT
- binding result [1]: binds

B5: ABA3 269200 mu (dsDNA)
DNA 1: ACATCGTCGTTCATCACGGGGGGGCGAAGCAAACAAGGAG
DNA 2: CTCCTTGTTTGCTTCGCCCCCCCGTGATGAACGACGATGT
- binding result [4]: no binding

B6: SDR 396500 WT (dsDNA)
DNA 1: CCGGATTGAGGGCCGGAGTAGCTGCAGGTGTGATCTCCCG
DNA 2: CGGGAGATCACACCTGCAGCTACTCCGGCCCTCAATCCGG
- binding result [5]: no binding

B7: AAO 343200 WT (dsDNA)
DNA 1: CACGAAGATTTCCCAGCTATCATCAATAAGACCAGGTCGC
DNA 2: GCGACCTGGTCTTATTGATGATAGCTGGGAAATCTTCGTG
- binding result [5]: no binding
